Consider two molecules from PMC6987200 (Nature Communications, 2020).

Series [1] deals with the molecule itself. In words: native MS; OmpF after detergent exchange from n-octyl-β-D-glucopyranoside to OGDs 1-3 on Superdex 200; MS buffer 200 mM NH4OAc, pH 6.8; HCD 200 V.
The target of series [2] is T1, aquaporin channel (AqpZ) fused to GFP, P60844.
T1 chain: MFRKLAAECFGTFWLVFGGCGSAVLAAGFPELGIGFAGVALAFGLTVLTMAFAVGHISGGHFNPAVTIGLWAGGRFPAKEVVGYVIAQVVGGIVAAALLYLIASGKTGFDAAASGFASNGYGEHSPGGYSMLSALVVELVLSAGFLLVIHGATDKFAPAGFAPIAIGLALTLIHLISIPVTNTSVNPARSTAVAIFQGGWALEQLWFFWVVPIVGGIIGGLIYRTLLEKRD
Nature of the series: native MS; AqpZ-GFP after extraction with OGD batches and IMAC; MS buffer 200 mM NH4OAc, pH 6.8, with detergent; modified Q Exactive, HCD 200 V. Conditions: remark: other sources report otherwise.

Where “and” joins values, the source holds several entries; their conditions need not be identical. Equal entries are not always repeated.

B1: OmpF (natural protein, UniProt P02931 23-362, looked up)
chain: AEIYNKDGNKVDLYGKAVGLHYFSKGNGENSYGGNGDMTYARLGFKGETQINSDLTGYGQWEYNFQGNNSEGADAQTGNKTRLAFAGLKYADVGSFDYGRNYGVVYDALGYTDMLPEFGGDTAYSDDFFVGRVGGVATYRNSNFFGLVDGLNFAVQYLGKNERDTARRSNGDGVGGSISYEYEGFGIVGAYGAADRTNLQEAQPLGNGKKAEQWATGLKYDANNIYLAANYGETRNATPITNKFTNTSGFANKTQDVLLVAQYQFDFGLRPSIAYTKSKAKDVEGIGDVDLVNYFEVGATYYFNKNMSTYVDYIINQIDSDNKLGVGSDDTVAVGIVYQF
notes: OmpF, a bacterial outer membrane protein; also called trimeric OmpF; source: detergent exchanged on Superdex 200
Regarding B1, the “stoichiometry N” value in series [1] stood at 3.

B2: aquaporin channel (AqpZ) fused to GFP, P60844 1-231 (natural protein)
chain: T1 chain
With B2, the stoichiometry N in series [2] was 4 and 2.
